Non-standard residues stand in square brackets, D forms with d. Phe(4-F) = N[C@@H](Cc1ccc(F)cc1)C(=O)O; 1Nal = N[C@@H](Cc1cccc2ccccc12)C(=O)O; αMeL = CC(C)C[C@](C)(N)C(=O)O; Nle = CCCC[C@H](N)C(=O)O; Aib = CC(C)(N)C(=O)O
T1: RXFP1 receptor (UniProt Q9HBX9 1-757, limits assumed)
T1 sequence (looked up): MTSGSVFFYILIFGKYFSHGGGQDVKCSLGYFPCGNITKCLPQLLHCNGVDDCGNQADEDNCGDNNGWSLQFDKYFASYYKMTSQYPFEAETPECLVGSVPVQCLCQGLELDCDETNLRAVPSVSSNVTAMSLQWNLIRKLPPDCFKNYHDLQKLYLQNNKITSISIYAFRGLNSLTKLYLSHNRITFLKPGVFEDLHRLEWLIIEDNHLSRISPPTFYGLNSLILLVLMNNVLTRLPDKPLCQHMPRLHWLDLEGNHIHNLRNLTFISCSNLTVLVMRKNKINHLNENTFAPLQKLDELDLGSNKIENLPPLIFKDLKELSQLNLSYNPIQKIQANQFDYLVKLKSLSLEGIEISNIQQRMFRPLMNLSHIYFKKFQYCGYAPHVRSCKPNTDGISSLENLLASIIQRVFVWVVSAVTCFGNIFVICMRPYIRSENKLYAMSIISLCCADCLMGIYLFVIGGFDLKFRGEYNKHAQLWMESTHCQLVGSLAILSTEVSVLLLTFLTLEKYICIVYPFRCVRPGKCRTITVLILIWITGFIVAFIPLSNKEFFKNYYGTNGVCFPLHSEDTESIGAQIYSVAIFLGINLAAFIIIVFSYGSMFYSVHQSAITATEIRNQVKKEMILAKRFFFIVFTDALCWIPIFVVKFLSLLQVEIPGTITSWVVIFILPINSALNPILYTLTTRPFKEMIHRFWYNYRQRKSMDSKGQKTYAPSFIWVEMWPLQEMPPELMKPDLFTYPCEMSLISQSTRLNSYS


Target: T1, RXFP1 receptor
Assay: cell-based or functional assay

Binder | cAMP assay in OVCAR 5 cells EC50 | cAMP assay in OVCAR 5 cells Emax
Ac-LEGREKVR[Aib]QI[Aib]IEGMSKWSKRKK-NH2 (SMILES CC[C@H](C)[C@H](NC(=O)[C@H](CCC(N)=O)NC(=O)C(C)(C)NC(=O)[C@H](CCCNC(=N)N)NC(=O)[C@@H](NC(=O)[C@H](CCCCN)NC(=O)[C@H](CCC(=O)O)NC(=O)[C@H](CCCNC(=N)N)NC(=O)CNC(=O)[C@H](CCC(=O)O)NC(=O)[C@H](CC(C)C)NC(C)=O)C(C)C)C(=O)NC(C)(C)C(=O)N[C@H](C(=O)N[C@@H](CCC(=O)O)C(=O)NCC(=O)N[C@@H](CCSC)C(=O)N[C@@H](CO)C(=O)N[C@@H](CCCCN)C(=O)N[C@@H](Cc1c[nH]c2ccccc12)C(=O)N[C@@H](CO)C(=O)N[C@@H](CCCCN)C(=O)N[C@@H](CCCNC(=N)N)C(=O)N[C@@H](CCCCN)C(=O)N[C@@H](CCCCN)C(N)=O)[C@@H](C)CC) [SEQ ID NO: 7] | 56.6 nM | 101%
Ac-LEGREKVRAQI[Aib]IEG[Nle]SKWSKRKK-NH2 (SMILES CCCC[C@H](NC(=O)CNC(=O)[C@H](CCC(=O)O)NC(=O)[C@@H](NC(=O)C(C)(C)NC(=O)[C@@H](NC(=O)[C@H](CCC(N)=O)NC(=O)[C@H](C)NC(=O)[C@H](CCCNC(=N)N)NC(=O)[C@@H](NC(=O)[C@H](CCCCN)NC(=O)[C@H](CCC(=O)O)NC(=O)[C@H](CCCNC(=N)N)NC(=O)CNC(=O)[C@H](CCC(=O)O)NC(=O)[C@H](CC(C)C)NC(C)=O)C(C)C)[C@@H](C)CC)[C@@H](C)CC)C(=O)N[C@@H](CO)C(=O)N[C@@H](CCCCN)C(=O)N[C@@H](Cc1c[nH]c2ccccc12)C(=O)N[C@@H](CO)C(=O)N[C@@H](CCCCN)C(=O)N[C@@H](CCCNC(=N)N)C(=O)N[C@@H](CCCCN)C(=O)N[C@@H](CCCCN)C(N)=O) [SEQ ID NO: 8] | 60 nM | 103%
Ac-LEGREKVRAQI[Aib][Aib]EGQST[Phe(4-F)]S[Aib]RKK-NH2 (SMILES CC[C@H](C)[C@H](NC(=O)[C@H](CCC(N)=O)NC(=O)[C@H](C)NC(=O)[C@H](CCCNC(=N)N)NC(=O)[C@@H](NC(=O)[C@H](CCCCN)NC(=O)[C@H](CCC(=O)O)NC(=O)[C@H](CCCNC(=N)N)NC(=O)CNC(=O)[C@H](CCC(=O)O)NC(=O)[C@H](CC(C)C)NC(C)=O)C(C)C)C(=O)NC(C)(C)C(=O)NC(C)(C)C(=O)N[C@@H](CCC(=O)O)C(=O)NCC(=O)N[C@@H](CCC(N)=O)C(=O)N[C@@H](CO)C(=O)N[C@H](C(=O)N[C@@H](Cc1ccc(F)cc1)C(=O)N[C@@H](CO)C(=O)NC(C)(C)C(=O)N[C@@H](CCCNC(=N)N)C(=O)N[C@@H](CCCCN)C(=O)N[C@@H](CCCCN)C(N)=O)[C@@H](C)O) [SEQ ID NO: 59] | 29.8 nM | 86%
Ac-LEGREKVRAQI[Aib][Aib]EGQSTYS[Aib]RKK-NH2 (SMILES CC[C@H](C)[C@H](NC(=O)[C@H](CCC(N)=O)NC(=O)[C@H](C)NC(=O)[C@H](CCCNC(=N)N)NC(=O)[C@@H](NC(=O)[C@H](CCCCN)NC(=O)[C@H](CCC(=O)O)NC(=O)[C@H](CCCNC(=N)N)NC(=O)CNC(=O)[C@H](CCC(=O)O)NC(=O)[C@H](CC(C)C)NC(C)=O)C(C)C)C(=O)NC(C)(C)C(=O)NC(C)(C)C(=O)N[C@@H](CCC(=O)O)C(=O)NCC(=O)N[C@@H](CCC(N)=O)C(=O)N[C@@H](CO)C(=O)N[C@H](C(=O)N[C@@H](Cc1ccc(O)cc1)C(=O)N[C@@H](CO)C(=O)NC(C)(C)C(=O)N[C@@H](CCCNC(=N)N)C(=O)N[C@@H](CCCCN)C(=O)N[C@@H](CCCCN)C(N)=O)[C@@H](C)O) [SEQ ID NO: 58] | 41 nM | 93%
Ac-LEGREKVRAQI[Aib][Aib]EGQSTFS[Aib]RKK-NH2 (SMILES CC[C@H](C)[C@H](NC(=O)[C@H](CCC(N)=O)NC(=O)[C@H](C)NC(=O)[C@H](CCCNC(=N)N)NC(=O)[C@@H](NC(=O)[C@H](CCCCN)NC(=O)[C@H](CCC(=O)O)NC(=O)[C@H](CCCNC(=N)N)NC(=O)CNC(=O)[C@H](CCC(=O)O)NC(=O)[C@H](CC(C)C)NC(C)=O)C(C)C)C(=O)NC(C)(C)C(=O)NC(C)(C)C(=O)N[C@@H](CCC(=O)O)C(=O)NCC(=O)N[C@@H](CCC(N)=O)C(=O)N[C@@H](CO)C(=O)N[C@H](C(=O)N[C@@H](Cc1ccccc1)C(=O)N[C@@H](CO)C(=O)NC(C)(C)C(=O)N[C@@H](CCCNC(=N)N)C(=O)N[C@@H](CCCCN)C(=O)N[C@@H](CCCCN)C(N)=O)[C@@H](C)O) [SEQ ID NO: 57] | 24.4 nM | 91%
Ac-LEGREKVRAQI[Aib]IEGMSK[1Nal]SKRKK-NH2 (SMILES CC[C@H](C)[C@H](NC(=O)[C@H](CCC(N)=O)NC(=O)[C@H](C)NC(=O)[C@H](CCCNC(=N)N)NC(=O)[C@@H](NC(=O)[C@H](CCCCN)NC(=O)[C@H](CCC(=O)O)NC(=O)[C@H](CCCNC(=N)N)NC(=O)CNC(=O)[C@H](CCC(=O)O)NC(=O)[C@H](CC(C)C)NC(C)=O)C(C)C)C(=O)NC(C)(C)C(=O)N[C@H](C(=O)N[C@@H](CCC(=O)O)C(=O)NCC(=O)N[C@@H](CCSC)C(=O)N[C@@H](CO)C(=O)N[C@@H](CCCCN)C(=O)N[C@@H](Cc1cccc2ccccc12)C(=O)N[C@@H](CO)C(=O)N[C@@H](CCCCN)C(=O)N[C@@H](CCCNC(=N)N)C(=O)N[C@@H](CCCCN)C(=O)N[C@@H](CCCCN)C(N)=O)[C@@H](C)CC) [SEQ ID NO: 9] | 37.6 nM | 100%
Ac-[αMeL]EGREKVRAK(Ac)I[Aib][Aib]EG[Nle]STWS[Aib]RKK(Ac)-NH2 (SMILES CCCC[C@H](NC(=O)CNC(=O)[C@H](CCC(=O)O)NC(=O)C(C)(C)NC(=O)C(C)(C)NC(=O)[C@@H](NC(=O)[C@H](CCCCNC(C)=O)NC(=O)[C@H](C)NC(=O)[C@H](CCCNC(=N)N)NC(=O)[C@@H](NC(=O)[C@H](CCCCN)NC(=O)[C@H](CCC(=O)O)NC(=O)[C@H](CCCNC(=N)N)NC(=O)CNC(=O)[C@H](CCC(=O)O)NC(=O)[C@](C)(CC(C)C)NC(C)=O)C(C)C)[C@@H](C)CC)C(=O)N[C@@H](CO)C(=O)N[C@H](C(=O)N[C@@H](Cc1c[nH]c2ccccc12)C(=O)N[C@@H](CO)C(=O)NC(C)(C)C(=O)N[C@@H](CCCNC(=N)N)C(=O)N[C@@H](CCCCN)C(=O)N[C@@H](CCCCNC(C)=O)C(N)=O)[C@@H](C)O) [SEQ ID NO: 56] | 12.3 nM | 95%
Ac-LEGREKVRAQI[Aib][Aib]EGMSTWSKRKK-NH2 (SMILES CC[C@H](C)[C@H](NC(=O)[C@H](CCC(N)=O)NC(=O)[C@H](C)NC(=O)[C@H](CCCNC(=N)N)NC(=O)[C@@H](NC(=O)[C@H](CCCCN)NC(=O)[C@H](CCC(=O)O)NC(=O)[C@H](CCCNC(=N)N)NC(=O)CNC(=O)[C@H](CCC(=O)O)NC(=O)[C@H](CC(C)C)NC(C)=O)C(C)C)C(=O)NC(C)(C)C(=O)NC(C)(C)C(=O)N[C@@H](CCC(=O)O)C(=O)NCC(=O)N[C@@H](CCSC)C(=O)N[C@@H](CO)C(=O)N[C@H](C(=O)N[C@@H](Cc1c[nH]c2ccccc12)C(=O)N[C@@H](CO)C(=O)N[C@@H](CCCCN)C(=O)N[C@@H](CCCNC(=N)N)C(=O)N[C@@H](CCCCN)C(=O)N[C@@H](CCCCN)C(N)=O)[C@@H](C)O) [SEQ ID NO: 10] | 22.9 nM | 103%
Ac-[Aib]EGREKVRAQI[Aib][Aib]EGMSKWSKRKK-NH2 (SMILES CC[C@H](C)[C@H](NC(=O)[C@H](CCC(N)=O)NC(=O)[C@H](C)NC(=O)[C@H](CCCNC(=N)N)NC(=O)[C@@H](NC(=O)[C@H](CCCCN)NC(=O)[C@H](CCC(=O)O)NC(=O)[C@H](CCCNC(=N)N)NC(=O)CNC(=O)[C@H](CCC(=O)O)NC(=O)C(C)(C)NC(C)=O)C(C)C)C(=O)NC(C)(C)C(=O)NC(C)(C)C(=O)N[C@@H](CCC(=O)O)C(=O)NCC(=O)N[C@@H](CCSC)C(=O)N[C@@H](CO)C(=O)N[C@@H](CCCCN)C(=O)N[C@@H](Cc1c[nH]c2ccccc12)C(=O)N[C@@H](CO)C(=O)N[C@@H](CCCCN)C(=O)N[C@@H](CCCNC(=N)N)C(=O)N[C@@H](CCCCN)C(=O)N[C@@H](CCCCN)C(N)=O) [SEQ ID NO: 11] | 44.8 nM | 102%

— patent publication US20190233495A1 (Sanofi, published 2019)
